Experimental data: patent US20030100089A1

B1: human leukocyte elastase (HLE) (protein)
chain: IVGGRRARPHAWPFMVSLQLRGGHFCGATLIAPNFVMSAAHCVANVNVRAVRVVLGAHNLSRREPTRQVFAVQRIFENGYDPVNLLNDIVILQLNGSATINANVQVAQLPAQGRRLGNGVQCLAMGWGLLGRNRGIASVLQELNVTVVTSLCRRSNVCTLVRGRQAGVCFGDSGSPLVCNGLIHGIASFVRGGCASGLYPDAFAPVAQFVNWIDSIIQ

Columns and labels:
[1] = biological target: porcine pancreatic elastase (PPE) (porcine) (UniProt P00772); assay: cell-based or functional assay
Chymotrypsin = assay: cell-based or functional assay
MMP-7 = biological target: T1, MMP-7; assay: cell-based or functional assay
T1 sequence (P09237 95-267, species assumed, looked up): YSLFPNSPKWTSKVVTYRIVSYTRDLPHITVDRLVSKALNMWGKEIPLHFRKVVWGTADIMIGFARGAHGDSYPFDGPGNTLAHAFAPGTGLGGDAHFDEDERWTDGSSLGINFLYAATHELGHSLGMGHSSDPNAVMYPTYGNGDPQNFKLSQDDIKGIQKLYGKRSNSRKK

Cathepsin G = biological target: T2, Cathepsin G; assay: cell-based or functional assay
T2 sequence (P08311 21-244, species assumed, looked up): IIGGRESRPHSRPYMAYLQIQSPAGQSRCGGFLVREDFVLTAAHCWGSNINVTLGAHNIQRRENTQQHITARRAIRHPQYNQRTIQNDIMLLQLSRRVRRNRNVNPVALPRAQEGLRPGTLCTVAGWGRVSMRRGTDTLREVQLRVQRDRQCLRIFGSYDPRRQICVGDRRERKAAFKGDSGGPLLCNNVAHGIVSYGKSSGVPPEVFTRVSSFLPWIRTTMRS

Plasmin = assay: cell-based or functional assay
Cathepsin D = assay: cell-based or functional assay
Trypsin = assay: cell-based or functional assay
Thrombin = assay: cell-based or functional assay
Papaine = assay: cell-based or functional assay
[2] = biological target: human leukocyte elastase (HLE) (human) (UniProt P08246); assay: cell-based or functional assay
MMP-2 = assay: cell-based or functional assay
[3] = biological target: p54 protein (glycoprotein of about 54 kDa isolated from shark cartilage, serine protease inhibitor)

Chain of UniProt P00772 (P00772 27-266): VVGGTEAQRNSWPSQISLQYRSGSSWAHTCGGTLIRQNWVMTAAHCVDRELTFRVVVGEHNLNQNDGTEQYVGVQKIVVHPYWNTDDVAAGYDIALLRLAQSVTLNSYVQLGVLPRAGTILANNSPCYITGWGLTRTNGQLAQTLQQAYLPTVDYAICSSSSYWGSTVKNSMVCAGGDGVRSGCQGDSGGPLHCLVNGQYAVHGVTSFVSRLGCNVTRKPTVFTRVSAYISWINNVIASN

Row | Molecule | Activity (% inhibition) [1] [% inhibition] | Activity (% inhibition) (Chymotrypsin) | Activity (% inhibition) (MMP-7) | Activity (% inhibition) (Cathepsin G) | Activity (% inhibition) (Plasmin) | Activity (% inhibition) (Cathepsin D) | Activity (% inhibition) (Trypsin) | Activity (% inhibition) (Thrombin) | Activity (% inhibition) (Papaine) | Activity (% inhibition) [2] [% inhibition] | Activity (% inhibition) (MMP-2) | elastase assay (fluorescent elastin substrate) [3]
1 | Alpha 1-antitrypsin (AAT) | 64 | 100 | 0 | 68 | 49 | 77 | 94 |  |  |  |  | 
2 | p54 protein (glycoprotein of about 54 kDa isolated from shark cartilage, serine protease inhibitor) | 84 | 53 | 0 | 0 | 49 | 0 | 30 | 0 | 8 | 42 | 0 | 
3 | B1 |  |  |  |  |  |  |  |  |  |  |  | The inhibition of elastase by the p54 protein was also validated with a human leukocyte elastase
